Experimental data from the supplement of paper PMC6379048.

Key:
Test in all cases: Kd (EC50 corrected by depletion factor)
[1] = biological target: T1, CMTR1 (UniProt Q8N1G2)
T1 sequence: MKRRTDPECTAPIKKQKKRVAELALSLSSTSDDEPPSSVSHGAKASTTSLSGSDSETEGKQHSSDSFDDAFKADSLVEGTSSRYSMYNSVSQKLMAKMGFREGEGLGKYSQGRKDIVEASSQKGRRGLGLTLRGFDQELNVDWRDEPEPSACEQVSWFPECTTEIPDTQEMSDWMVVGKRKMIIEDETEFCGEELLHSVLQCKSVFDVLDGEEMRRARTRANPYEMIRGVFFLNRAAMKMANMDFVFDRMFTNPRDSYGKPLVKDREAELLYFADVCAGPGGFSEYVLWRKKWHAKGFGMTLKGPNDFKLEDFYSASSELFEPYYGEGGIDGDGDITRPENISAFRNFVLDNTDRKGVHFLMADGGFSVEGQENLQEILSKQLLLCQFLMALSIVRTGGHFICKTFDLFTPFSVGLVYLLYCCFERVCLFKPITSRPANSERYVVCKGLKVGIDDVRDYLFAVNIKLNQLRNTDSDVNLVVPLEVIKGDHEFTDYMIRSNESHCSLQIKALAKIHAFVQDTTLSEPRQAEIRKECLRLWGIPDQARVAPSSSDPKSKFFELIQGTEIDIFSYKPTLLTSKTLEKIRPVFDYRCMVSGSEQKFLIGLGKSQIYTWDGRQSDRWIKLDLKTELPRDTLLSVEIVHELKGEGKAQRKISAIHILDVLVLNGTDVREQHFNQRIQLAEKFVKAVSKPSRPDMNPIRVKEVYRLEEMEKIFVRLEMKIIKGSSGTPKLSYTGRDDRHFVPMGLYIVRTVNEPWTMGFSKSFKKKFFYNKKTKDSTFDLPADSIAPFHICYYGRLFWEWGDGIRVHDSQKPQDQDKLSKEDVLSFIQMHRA
Method in brief: (§1)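 To obtain EC50, data were fitted with a four-parameter log-logistic model; Kd was then EC50 multiplied by a protein-dependent depletion factor. Beforehand, free RNA oligos (0 nM to 30 μM) were pre-incubated with HEK293-FT lysate (2.5 mg protein/well) for 1 h at 4°C. The lysate then spent 30 min at 4°C with the same 5′-amino-C6 oligos coupled to NHS-Sepharose beads, and bound proteins were quantified by label-free LC-MS/MS, normalised to the control.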

[2] = biological target: ELAVL1 (UniProt Q15717)
Method in brief: as §1

[3] = biological target: T2, HNRNPD (UniProt Q14103)
T2 sequence: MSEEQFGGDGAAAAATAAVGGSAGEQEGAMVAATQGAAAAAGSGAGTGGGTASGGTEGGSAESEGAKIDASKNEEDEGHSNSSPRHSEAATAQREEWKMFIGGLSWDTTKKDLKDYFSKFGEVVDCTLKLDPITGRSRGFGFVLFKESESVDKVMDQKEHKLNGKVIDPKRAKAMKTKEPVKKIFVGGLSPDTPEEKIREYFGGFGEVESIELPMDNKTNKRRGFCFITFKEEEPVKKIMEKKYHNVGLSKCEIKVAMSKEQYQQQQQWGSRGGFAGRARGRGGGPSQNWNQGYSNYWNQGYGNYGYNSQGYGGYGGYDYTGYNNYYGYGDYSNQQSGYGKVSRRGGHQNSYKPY
Method in brief: as §1

[4] = biological target: T3, ZFP36L2 (UniProt P47974)
T3 sequence: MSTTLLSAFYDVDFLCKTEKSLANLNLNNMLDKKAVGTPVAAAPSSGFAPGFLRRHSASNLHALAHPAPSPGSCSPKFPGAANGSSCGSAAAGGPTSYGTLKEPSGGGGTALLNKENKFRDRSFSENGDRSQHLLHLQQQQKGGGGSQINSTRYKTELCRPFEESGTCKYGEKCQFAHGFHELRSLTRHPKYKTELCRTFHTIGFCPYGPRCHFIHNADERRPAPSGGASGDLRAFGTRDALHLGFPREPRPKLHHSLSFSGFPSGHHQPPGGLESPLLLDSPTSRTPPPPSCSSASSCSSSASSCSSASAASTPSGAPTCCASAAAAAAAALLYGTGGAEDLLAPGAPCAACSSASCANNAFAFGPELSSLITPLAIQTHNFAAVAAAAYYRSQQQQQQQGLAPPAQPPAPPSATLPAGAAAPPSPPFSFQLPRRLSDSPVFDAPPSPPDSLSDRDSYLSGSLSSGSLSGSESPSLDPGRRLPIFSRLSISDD
Method in brief: as §1

[5] = biological target: RPS16 (UniProt P62249)
Method in brief: as §1

ELAVL1, sequence (Q15717 whole entry): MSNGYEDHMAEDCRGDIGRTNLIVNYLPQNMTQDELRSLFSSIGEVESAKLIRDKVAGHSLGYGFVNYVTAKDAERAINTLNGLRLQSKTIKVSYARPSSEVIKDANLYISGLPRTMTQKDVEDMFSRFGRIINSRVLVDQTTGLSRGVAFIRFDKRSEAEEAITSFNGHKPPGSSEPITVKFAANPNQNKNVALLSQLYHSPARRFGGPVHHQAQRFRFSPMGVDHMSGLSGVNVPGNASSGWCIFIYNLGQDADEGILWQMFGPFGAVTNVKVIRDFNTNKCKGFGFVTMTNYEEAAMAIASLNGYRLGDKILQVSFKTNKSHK

| Sequence | Kd [1] | Kd [2] | Kd [3] | Kd [4] | Kd [5] |
| --- | --- | --- | --- | --- | --- |
| UAUUUAU | 591 nM | 920 nM | 583 nM | 11.1 nM |  |
| CUGUCCU |  |  |  |  | 77 nM |
| AAUAAA | 209 nM | 440 nM | 764 nM | 357 nM | 349 nM |
